Consider nine molecules from paper PMC9427776, “TTYH family members form tetrameric complexes at the cell membrane” (Communications Biology, 2022).

The target of series [1] is mTTYH3 ECD1-T4L-ECD2 (mouse | not stated) (UniProt Q6P5F7). The series can be described thus: cross-linking; secreted protein from clarified insect cell medium, DSS at 0, 10, 50, 100, 200, 2000 uM; western blot.
Series [2] concerns the molecule itself. The series can be described thus: native gel or EMSA; Blue-Native PAGE of HEK 293 lysates in 0.05% (mTTYH1) or 0.1% (mTTYH3) DDM, 50 mM NaCl, 20 mM Tris-HCl pH 7.5; anti-FLAG western blot. On the technique in general: Mobility shift assays separate free from complexed probe on a gel.
Series [3] concerns the molecule itself. The series can be described thus: cross-linking; in situ on adherent HEK 293 cells with membrane-impermeable BS3 (0, 10, 50, 100, 200, 2000 uM), 1 h at room temperature; lysis in 1% DDM; SDS-PAGE and anti-FLAG western blot. (In general: In western blotting, separated proteins are transferred to a membrane and probed.)
Series [4] concerns the molecule itself. The experiment in a line: single-molecule subunit counting (photobleaching steps of EGFP, TIRFM); EGFP fusions at low density in the plasma membrane of living Xenopus laevis oocytes, room temperature; bleaching steps counted by hand, fit to a binomial distribution (p = 0.7).
Series [5] deals with the molecule itself. The series can be described thus: SEC; FSEC of HEK 293 cells solubilised in 1% DDM, Superdex 200 Increase, 150 mM NaCl, 50 mM Tris-HCl pH 7.5, 1 mM DDM; EGFP fluorescence; also after 10 min at 20-80 C (FSEC-TS) or with 20 mM 2-ME, both of which shift the population toward dimers. For orientation: SEC sorts molecules by how far they enter the pores of the column.

Series [6] concerns the molecule itself. The experiment in a line: SEC-MALS; purified mTTYH1-GFP-8xHis, 50 uL at 1.18 mg/mL, Superdex 200 Increase, 20 mM Tris pH 7.5, 150 mM NaCl, 0.3 mM DDM; protein conjugate analysis.

Values joined by “and” are separate entries in the source; they are usually repeats but may differ in a detail not shown here. Equal values may be shown once.

One may read the stoichiometry N as the number of molecules, sites or subunits per partner or assembly.

For the molecule “mTTYH3 ECD1-T4L-ECD2 (from UniProt Q6P5F7 107-209; Q6P5F7 260-386) (domain or fragment)”, the stoichiometry N in series [1] amounted to 4.

B1: FLAG-tagged mTTYH1 (natural protein, mouse, UniProt Q9D3A9 1-450, looked up)
chain: MGAPPGYRPSAWVHLLHQLPRADFQLRPVPSGFAPRDQEYQQALLLVAALAGLGLGLSLIFIAVYLIRFCCCRPPEPHGAKSPPPGGGCVTWSCIAALLVGCAGIGIGFYGNSETSDGVSQLSSALLHANHTLSTIDDVVLETVERLGEAVKTELTTLEEVLSVRMELVAATRGARRQAEAAAQYLQGLAFWQGVSLSPVQVAEDVTFVEEYRWLAYVLLLLLVLLVCLFTLLGLAKQSKWLVVVMTAMSLLVLVLSWGSMGLEAATAVGLSDFCSNPDTYVLNLTQEETGLSSDILSYYFLCNQAVSNPFQQRLTLSQRALASIHSQLQGLEREAIPQFSAAQKPLLSLEETLNVTERSFHQLVALLHCRSLHKDYGSALRGLCEDALEGLLFLMLFSLLSAGALATTLCSLPRAWALFPPSDDYDDTDDDDPFNPQESKRFVQWQSSI
notes: mouse Tweety homolog 1 (mTTYH1), intact protein; so the FLAG is probably C-terminal; also called mouse Tweety homolog 1; source: HEK 293 cells (HEK293T), transiently transfected; cross-linked on the cells or in DDM lysate
Regarding B1, the “stoichiometry N” value in series [2] came to 2; in series [3], 4.

B2: mTTYH1-EGFP (Xenopus oocytes, pGH19) (natural protein, mouse, UniProt Q9D3A9 1-450, looked up)
chain: B1 chain
notes: mouse Tweety homolog 1 (mTTYH1), intact protein; also called EGFP-fused mTTYH1; source: Xenopus laevis oocytes injected with about 1 ng cRNA, at the plasma membrane; not shown: EGFP, C-terminal, kept
Regarding B2, in series [4], the “stoichiometry N” value turned out to be 4.

B3: mTTYH1-EGFP (HEK 293, pEGFP-N1) (natural protein, mouse, UniProt Q9D3A9 1-450, looked up)
chain: B1 chain
notes: mouse Tweety homolog 1 (mTTYH1), intact protein; also called EGFP-fused mTTYH1; source: HEK 293 cells, transiently transfected, detergent-solubilised lysate; not shown: EGFP, C-terminal, kept
Take B3: in series [5], the “stoichiometry N” value is 4 and 2.

B4: mTTYH1-GFP-8xHis (natural protein, mouse, UniProt Q9D3A9 1-450, looked up)
chain: B1 chain
modifications: N-glycosylated (HexNAc at Asn; sites not given)
notes: mouse Tweety homolog 1 (mTTYH1), intact protein; also called purified mTTYH1-GFP; intact mTTYH1-GFP; not shown: EGFP, C-terminal, kept; His8, C-terminal, kept
On to B4, for which the “stoichiometry N” value in series [6] was 4 and 2.

B5: mTTYH3-EGFP (HEK 293, pEGFP-N1) (natural protein, mouse, UniProt Q6P5F7 1-524, looked up)
chain: MAGVSYAAPWWVSLLHRLPHFDLRWEATSSQFRPEDADYQQALLLLGATALACLALDLLFLLFYSFWLCCRRRKTDEHLDADCCCTAWCVIITTLVCSAGIAVGFYGNGETSDGIHRATYSLRHANRTVAGVQDRVWDTAAALNRTAEPNLQSLERQLAGRQEPLRAVQRLQTLLGTLLGYTAAIPFWRNPGVSLEVLAEQVDLYDWYRWLGYLGLLLLDVIICLLVLVGLIRSSKGILVGVCLLGVLALVISWGALGLELAVSVGSSDFCVDPDTFVTKMVEEHSVLSGDILQYYLACSPRATNPFQQKLSGSHKALVEMQDVVAELLRNVPREHPATKDPLLRVQEVLNGTEVNLQHLTALVDCRSLHLDYVQALTGFCYDGVEGLIYLALFSFVTALMFSSIVCSIPHTWQQKRGPDDDGEEETAPGPRQAHDSLYRVHMPSLYSCGSSYGSEASIPAAAHTVSNAPVTEYMSQNANFQNPRCENTPLIGRESPPPSYTSSMRAKYLATSQPRPDSSGSGH
notes: mouse Tweety homolog 3 (mTTYH3), intact protein; also called EGFP-fused mTTYH3; mTTYH3-GFP; source: HEK 293 cells, transiently transfected, detergent-solubilised lysate; not shown: EGFP, C-terminal, kept
For the molecule B5, the “stoichiometry N” value in series [5] was 4 and 2.

B6: FLAG-tagged mTTYH3 (natural protein, mouse, UniProt Q6P5F7 1-524, looked up)
chain: B5 chain
notes: mouse Tweety homolog 3 (mTTYH3), intact protein; so the FLAG is probably C-terminal; also called mouse Tweety homolog 3; source: HEK 293 cells (HEK293T), transiently transfected; cross-linked on the cells or in DDM lysate
As to B6, the “stoichiometry N” value in series [2] was determined as 2; in series [3], 4.

B7: mTTYH3-EGFP (Xenopus oocytes, pGH19) (natural protein, mouse, UniProt Q6P5F7 1-524, looked up)
chain: B5 chain
notes: mouse Tweety homolog 3 (mTTYH3), intact protein; also called EGFP-fused mTTYH3; source: Xenopus laevis oocytes injected with about 1 ng cRNA, at the plasma membrane; not shown: EGFP, C-terminal, kept
On to B7, for which, in series [4], the “stoichiometry N” value is 4.

B8: EGFP fusion of KCNH1 (natural protein, UniProt O95259 1-989, looked up)
chain: MTMAGGRRGLVAPQNTFLENIVRRSNDTNFVLGNAQIVDWPIVYSNDGFCKLSGYHRAEVMQKSSTCSFMYGELTDKDTIEKVRQTFENYEMNSFEILMYKKNRTPVWFFVKIAPIRNEQDKVVLFLCTFSDITAFKQPIEDDSCKGWGKFARLTRALTSSRGVLQQLAPSVQKGENVHKHSRLAEVLQLGSDILPQYKQEAPKTPPHIILHYCVFKTTWDWIILILTFYTAILVPYNVSFKTRQNNVAWLVVDSIVDVIFLVDIVLNFHTTFVGPAGEVISDPKLIRMNYLKTWFVIDLLSCLPYDVINAFENVDEVSAFMGDPGKIGFADQIPPPLEGRESQGISSLFSSLKVVRLLRLGRVARKLDHYIEYGAAVLVLLVCVFGLAAHWMACIWYSIGDYEIFDEDTKTIRNNSWLYQLAMDIGTPYQFNGSGSGKWEGGPSKNSVYISSLYFTMTSLTSVGFGNIAPSTDIEKIFAVAIMMIGSLLYATIFGNVTTIFQQMYANTNRYHEMLNSVRDFLKLYQVPKGLSERVMDYIVSTWSMSRGIDTEKVLQICPKDMRADICVHLNRKVFKEHPAFRLASDGCLRALAMEFQTVHCAPGDLIYHAGESVDSLCFVVSGSLEVIQDDEVVAILGKGDVFGDVFWKEATLAQSCANVRALTYCDLHVIKRDALQKVLEFYTAFSHSFSRNLILTYNLRKRIVFRKISDVKREEEERMKRKNEAPLILPPDHPVRRLFQRFRQQKEARLAAERGGRDLDDLDVEKGNVLTEHASANHSLVKASVVTVRESPATPVSFQAASTSGVPDHAKLQAPGSECLGPKGGGGDCAKRKSWARFKDACGKSEDWNKVSKAESMETLPERTKASGEATLKKTDSCDSGITKSDLRLDNVGEARSPQDRSPILAEVKHSFYPIPEQTLQATVLEVRHELKEDIKALNAKMTNIEKQLSEILRILTSRRSSQSPQELFEISRPQSPESERDIFGAS
notes: KCNH1, voltage-gated K+ channel; Positive control of the subunit counting; also called EGFP-fused KCNH1; source: Xenopus laevis oocytes injected with 1 ng cRNA, at the plasma membrane
As to B8, the “stoichiometry N” value in series [4] was 4.
